Laboratory results taken from patent US10568949B2, “Method of eliciting an anti-tumor immune response with controlled delivery of TLR agonists in porous polymerlc devices” (President and Fellows of Harvard College, priority 2008, dated 2020).
“And” between values parts separate entries of the source, which are not always exact repeats. Equal entries are not always repeated.

Key:
B16-F10 melanoma tumors = experiment: T-cell infiltration into tumor tissue (immunohistochemistry); assay type: in vivo, C57BL/6J mice
Method: PLG scaffolds with melanoma tumor lysates and various dosages of GM-CSF and/or 10 μg PEI-CpG-ODN condensates were implanted subcutaneously into the lower left flank of C57BL/6J mice. Animals were challenged 14 days later with a subcutaneous injection of 10^5 B16-F10 melanoma cells (ATCC, Manassas, N.J.) in the back of the neck. Animals were monitored for the onset of tumor growth (approximately 1 mm^3) and sacrificed for humane reasons when tumors grew to 20-25 mm (longest diameter). For histological examination, tumors were biopsied at days 20-25 after injection and fixed in Z-fix (Anatech, Battle Creek, Mich.) and stained for hematoxylin and eosin. To examine tumor tissue for T-cell infiltration, immunoperoxidase staining was performed using the avidin-biotin-peroxidase Vectastain Elite ABC kit (Vector Laboratories). The primary antibodies used were GK 1.5 (CD4), and 53-6.72 (CD8) and staining was developed using DAB+ substrate chromogen (DAKO, Carpinteria, Calif.). Sections from tumor samples (n=3 or 4) were visualized at 40× and 100× with a Nikon light microscope (Indianapolis, Ind.) and positively stained T-cells were counted manually.

T cells = experiment: T cell infiltration at PLG vaccine site (flow cytometry); assay type: in vivo, C57BL/6J mice; details: with tumor lysate and GM-CSF, day 12
Method: Blank PLG matrices and matrices containing 3000 ng of GM-CSF alone or in combination with either 1, 10, 50, or 100 μg of CpG-ODN (studies were also performed with tumor lysates copresented with either 3000 ng of GM-CSF or 100 μg of CpG-ODN alone or in combination) were implanted into subcutaneous pockets on the back of 7- to 9-week-old male C57BL/6J mice. For histological examination, scaffolds were excised and fixed in Z-fix solution (Anatech), embedded in paraffin, and stained with hematoxylin and eosin (H&E). To analyze DC recruitment, scaffolds were excised at various time points and digested the ingrown tissue into single-cell suspensions with a collagenase solution (250 U/ml; Worthington) that was agitated at 37° C. for 45 min. The cell suspensions were then poured through a 40-μm cell strainer to isolate cells from scaffold particles, and the cells were pelleted and washed with cold PBS and counted with a Z2 coulter counter (Beckman Coulter). […] To assess T cell infiltration, PE-Cy7-conjugated CD3 stains were performed in conjunction with APC-conjugated CD8a (CD8 T cells), FITC-conjugated CD4 (CD4 T cells), and PE-conjugated FoxP3 (Treg) and analyzed with flow cytometry. Cells were gated according to positive FITC, APC, and PE with isotype controls, and the percentage of cells staining positive for each surface antigen was recorded.

[1] = In vitro release / retention of GM-CSF, cytokines and TLR agonists from PLG scaffolds; assay type: physicochemical
Method: To determine the incorporation efficiency of CpG-ODN incorporation, PLG scaffolds were prepared with 50 ug of CpG-ODN and digested in 1 ml of chloroform (Sigma Aldrich, and washed with 2 mls of aqueous buffer. The aqueous phase was isolated and the amount of CpG-ODN incorporated was determined by absorbance readings (260/280 and 260/230 ratios calculated at 0.2 mm pathlength) using a Nanodrop instrument, ND1000 (Nanodrop technologies, Wilmington, Del.). Similarly, to determine CpG-ODN release kinetics CpG-ODN loaded scaffolds were placed in 1 ml of Phosphate Buffer Solution (PBS) in an incubator (37° C.). At various timepoints, the PBS release media was collected and replaced with fresh media. The total amount of CpG-ODN incorporated into PLG scaffolds and released into PBS over time was analyzed and recorded.

[2] = test system: IL-12p70, IFN-α, IFN-γ, and TGF-β; experiment: In vivo cytokine concentrations at matrix implant site (ELISA); parameters: species or system C57BL/6J mice
Method: After centrifugation, the concentrations of IL-12, IFN-α, IFN-γ, and TGF-β in the supernatant were then analyzed with enzyme-linked immunosorbent assay (R&D Systems) according to the manufacturer's instructions.

B16-F10 melanoma cells = experiment: Prophylactic vaccination, B16-F10 melanoma tumor challenge; details: for mouse survival: antigen matrices, CpG and GM-CSF together versus GM-CSF alone
Method: PLG scaffolds with melanoma tumor lysates and various dosages of GM-CSF and/or 10 μg PEI-CpG-ODN condensates were implanted subcutaneously into the lower left flank of C57BL/6J mice. Animals were challenged 14 days later with a subcutaneous injection of 10^5 B16-F10 melanoma cells (ATCC, Manassas, N.J.) in the back of the neck. Animals were monitored for the onset of tumor growth (approximately 1 mm^3) and sacrificed for humane reasons when tumors grew to 20-25 mm (longest diameter).
PLG scaffolds with melanoma tumor lysates and various dosages of GM-CSF and/or various quantities of PEI-CpG-ODN condensates were implanted subcutaneously into the lower left flank of C57BL/6J mice. For prophylactic vaccinations, animals were challenged 14 days later with a subcutaneous injection of 10^5 B16-F10 melanoma cells [American Type Culture Collection (ATCC)] in the back of the neck. Animals were monitored for the onset of tumor growth (˜1 mm^3) and killed for humane reasons when tumors grew to 20 to 25 mm (longest diameter).

dendritic cells = experiment: Example 7: DC recruitment and activation in matrices with GM-CSF and TLR agonists (FACS, day 7); assay type: in vivo, C57BL/6J mice
Description: The cell suspensions were then poured through a 40 μm cell strainer to isolate cells from scaffold particles and the cells were pelleted and washed with cold PBS and counted using a Z2 coulter counter (Beckman Coulter). To assess, DC infiltration and activation, subsets of the total cell population isolated from PLG matrices were then stained with primary antibodies (BD Pharmingen, San Diego, Calif.) conjugated to fluorescent markers to allow for analysis by flow cytometry. APC-conjugated CD11c (dendritic cell marker), FITC-conjugated MHCII and PE-conjugated CD86 (B7, costimulatory molecule) stains were conducted for DC recruitment and activation analysis. To further delineate the presence of specific DC subsets, cells were also stained with APC-conjugated CD11c and PE-conjugated PDCA-1 (plasmacytoid DC marker) or APC-conjugated CD11c and PE-conjugated CD8 (CD8 DCs). To assess T-cell infiltration PE-Cy7 conjugated CD3 stains were performed in conjunction with APC-conjugated CD8a (CD8 T cells), and PE-conjugated FoxP3 (Treg) and analyzed with flow cytometry. Cells were gated according to single positive FITC, APC and PE stainings and using isotype controls. The percentage of cells staining positive for each surface antigen was recorded. To examine the ability of PLG matrices to recruit and activate dendritic cells in vivo, matrices delivering GM-CSF in combination with danger signals were implanted subcutaneously into the backs of C57BL/6J mice. The magnitude of DC infiltration and activation into the matrices was determined by FACS analysis of cell populations isolated from the polymeric material after 7 days.

[3] = optimal GM-CSF exposure (400 ng) with tumor antigen

CpG-ODN 1826
increase in CD8(+) T-cell infiltration into tumors over controls (B16-F10 melanoma tumors; infection mimics, 10 μg CpG-ODN dose): ~3 fold
ratio of CD8 CTLs to FoxP3 Treg cells at vaccine site (factor) (T cells): ~25
retained in the PLG matrices ([1]; over 25 days): > 80%
local production of IFN-α ([2]; high doses of CpG-ODN): ~1010 pg/mL
local production of IL-12 ([2]; high doses of CpG-ODN): 150 pg/mL
mouse survival (B16-F10 melanoma cells): 90%
survival rate (B16-F10 melanoma cells; lysate, GM-CSF and 10 μg CpG-ODN): 50% and 45%
survival rate (B16-F10 melanoma cells; lysate, GM-CSF and 10 μg CpG-ODN, listed as CpG): 50%
survival rate (B16-F10 melanoma cells; lysate, GM-CSF and 50 μg CpG-ODN): 60%
survival rate (B16-F10 melanoma cells; lysate, GM-CSF and 100 μg CpG-ODN): 90%
vaccinated mice surviving B16-F10 challenge (B16-F10 melanoma cells; tumor lysates with CpG-ODN (1, 10, 50 or 100), no GM-CSF): 10 to 30% and 20% and 10-30%
CD8(+) DCs at implant site, higher than controls (dendritic cells; with GM-CSF): 9 fold
CD11c(+) cells positive for MHCII(+) and CD86(+), of total cells recruited (dendritic cells; with GM-CSF): approximately 30%
enhancement of total number of recruited DCs compared to GM-CSF delivery alone (dendritic cells; with GM-CSF): 2.5 fold
increase in total number of activated DCs relative to control matrices (dendritic cells; with GM-CSF): ~23 fold

B1: granulocyte macrophage colony stimulating factor (protein, UniProt P01587 18-141, looked up)
Granulocyte-macrophage …: APTRSPITVTRPWKHVEAIKEALNLLDDMPVTLNEEVEVVSNEFSFKKLTCVQTRLKIFEQGLRGNFTKLKGALNMTASYYQTYCPPTPETDCETQVTTYADFIDSLKTFLTDIPFECKKPGQK
notes: cytokine encapsulated in and released from PLG matrices to recruit DCs
increase in CD8(+) cytotoxic T-cell numbers in tumors over blank controls (B16-F10 melanoma tumors; appropriate GM-CSF presentation with antigen): 2 fold
ratio of CD8 CTLs to FoxP3 Treg cells at vaccine site (factor) (T cells): almost even ratio
incorporated cytokine released from scaffolds ([1]; by day 4, in vitro): approximately 43%
GM-CSF protein released from PLG matrices ([1]; by day 10, in vitro): approximately 60%
daily release of protein ([1]; over the next 23 days after day 4): approximately 0.9%
bioactive GM-CSF load released from PLG matrices ([1]; within the first 5 days): approximately 60%
factor of increase in TGFβ concentrations at vaccine site ([2]; GM-CSF and tumor lysate in matrix): 10
animals cured / with protective anti-tumor immunity (B16-F10 melanoma cells; GM-CSF with antigen, optimal GM-CSF dose): 23%
mouse survival (B16-F10 melanoma cells): 20%
animal survival (B16-F10 melanoma cells; lysate, GM-CSF, CpG dose 0 μg): 23%
delay of tumor formation (B16-F10 melanoma cells; optimal GM-CSF dose with antigen, in 50% of the animals): approximately 40 days
increase in average time before tumor formation compared to antigen alone (B16-F10 melanoma cells; [3]): 3 fold
increase in average time before tumor formation over non-optimal GM-CSF exposure (B16-F10 melanoma cells; [3]): ~2 fold
CD11c(+) cells in matrices (dendritic cells; GM-CSF alone): 241000 cells
CD86 expression (dendritic cells; GM-CSF alone): 4.58 % of CD11c(+) cells
MHCII expression (dendritic cells; GM-CSF alone): 2.57 % of total CD11c(+) cells
